Laboratory results: the supplement of paper PMC9170038

Columns and labels:
[1] = tested on: MS2 coat protein; assay: apparent KD of MS2 coat protein, switch ON state; designed switch direction (-1 OFF switch, 1 ON switch): -1; higher = weaker reporter binding; details: FMN input: 0 or 200 uM; Eterna round: R93 (includes R88 designs)
Summary of the method: (§1)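 The buffer was 100 mM Tris-HCl pH 7.5 with 80 mM KCl and 4 mM MgCl2, used without or with constant ligand. In it, RNA switches transcribed on-chip from Illumina sequencing clusters were titrated with SNAP-549-labelled MS2 coat protein in twofold steps from 0.7 or 1.5 nM to 3 µM. Apparent KD for each design is the median of its normalised cluster binding-curve fits.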

[2] = tested on: MS2 coat protein; assay: apparent KD of MS2 coat protein, switch OFF state (with FMN for OFF switches, without FMN for ON switches); designed switch direction (-1 OFF switch, 1 ON switch): -1; higher = weaker reporter binding; details: FMN input: 0 or 200 uM; Eterna round: R93 (includes R88 designs)
Summary of the method: as §1

| Sequence | apparent KD of MS2 coat protein [1] | apparent KD of MS2 coat protein [2] |
| --- | --- | --- |
| AAAAAUUGAGGAUAUACAUGAGGAUCACCCAUGUUAGACCUAAAAAAAGGGAAAGAAAGUAGAAGGCAAUAAAA [Ex 3 May 28] | 14.6 nM | 18.8 nM |
| AAAACGGUAGGAUAUACAGUCCGUUGUCGAAUGAUGAAAAGACAUGAGGAUCACCCAUGUAGAAGGACCGAAAA [Bienor] | 36.5 nM | 138 nM |
| AAAACGGUAGGAUAUACAUGAGGAUCACCCAUGUUAAAUUUAAAAAUAAAAUUAAAAUGUAGAAGGACCAAAAA [Mai Tai1] | 31.5 nM | 35 nM |
| AAAACGGUAGGAUAUACGAUUGGGAACUAGACCGAGGAACCACAUGAGGAUCACCCAUGUAGAAGGGCCAAAAA [Ex2 Malc#14] | 16.9 nM | 16.7 nM |
| AAAACGUGAGGAUAUGCACCAAAAAAGGAAAAACGGGUACGACAUGAGGAUCACCCAUGUAGAAGGCACGAAAA [Frodo Flailing 9 - Jieux - Exclusion 2] | 40.8 nM | 39 nM |
| AAAAGAAAAGGAUAUAAAAAGAAAAGUCAGGAUAUAGGAAACUAGAAGGGACAUGAGGAUCACCCAUGUAAAAG [Meechl Ex4 R2 m2] | 35.9 nM | 71.9 nM |
| AAAAGACAUGAGGAUCACCCAUGUCAGGAUAUGACUUGAAAAAAAAAAAAAAAACAUGUCAGAAGGGACAUGAA [Design 45: Sub-opt D] | 20.6 nM | 19.6 nM |
| AAAAGACAUGAGGAUCACCCAUGUGAGGAUAUGACGUAAAUAAAGAAAGAAGAAAUCGUCAGAAGGCACACCUA [55%, Disencluded 2, 1] | 29.5 nM | 63.4 nM |
| AAAAGGAAAGGAUAUGCAGACUGGGUCACCCAGAUGUAUGAACAUGAGGAUCACCCAUGUAGAAGGUUCAAAAG [Ribiquon] | 36.6 nM | 26.5 nM |
| AAAAGUACAGGAUAUACAUGAGGAUCACCCAUGUGAAAAUUAAGUGGCGUACAACAAAGUAGAAGGGUACUGGA [Ruby 52] | 20.7 nM | 44.6 nM |
| AAAAGUUGAGGAUAUACAAAAUGAUUGCGAAAUCAAUUAAAACAUGAGGAUCACCCAUGUAGAAGGCGAUAAAA [Banishment 4 - Jieux - Exclusion 2] | 27 nM | 21.6 nM |
| AAAAUACAUGAGGAUCACCCAUGUGAGGAUAUGCUAUGGAAAUAAAAAAUAAAACAUAGCAGAAGGUACAAAAA [Mat - Exclusion 1 - Eli mod - D42] | 20.9 nM | 33.7 nM |
| AAAAUGUCAGGAUAUCUGGAUAGGAAAAAGAAAACCUAUCCAGAGAAGGGACAUGAGGAUCACCCAUGUAAAAA [JL cataway mod 3] | 92.9 nM | 171 nM |
| AAAAUGUCAGGAUAUGUAGCAUGAUACGAAAGUAUCAUGCUACAGAAGGGACAUGAGGAUCACCCAUGUGAUCA [Ex4: 939] | 59.7 nM | 45 nM |
| AAACCACAUGAGGAUCACCCAUGUUAGGAUAUGCUAUGGAAAAUAAAAAUAAAACAUAGCAGAAGGGACAAAAA [Denovo 7] | 19.3 nM | 18.7 nM |
| AAAGAGUGAGGAUAUUCGGAUAGGAAAACGAAAACCUAUCCGAAGAAGGCACAUGAGGAUCACCCAUGUAAAAA [67% Ecls-II - Early G segment 2] | 37.3 nM | 39.5 nM |

| Sequence | apparent KD of MS2 coat protein [1] | apparent KD of MS2 coat protein [2] |
| --- | --- | --- |
| AAAGAUACAGGAUAUACAUGAGGAUCACCCAUGUGGAAUCAAAAAUGGGAAAAAGAAAGUAGAAGGGUAUAAAA [Ex 3 May 38] | 30.6 nM | 87.3 nM |
| AAAGAUGCAGGAUAUACAUGAGGAUCACCCAUGUUAGACCAGAAAUGGGAAAAAGAAAGUAGAAGGGCAUAAAA [Ex 3 May 33] | 18.2 nM | 119 nM |
| AAAGGACGAGGAUAUACAUGAGGAUCACCCAUGUAAAAAACAUAAUAAAAGAACUUGUGUAGAAGGCGUCCAAA [Meechl Ex3 2 R2 v6] | 93 nM | 335 nM |
| AAAGGACGAGGAUAUACAUGAGGAUCACCCAUGUAAAAAGCGUAAUAAAAGAACUUAUGUAGAAGGCGUCCAAA [Meechl Ex3 2 R2 v1] | 45 nM | 66.8 nM |
| AAAGGUGCAGGAUAUGCGUGGAAAAAGUGUAUUCAAAAAAAACAUGAGGAUCACCCAUGUAGAAGGGUACCAAA [MS2 Riboswitches On Chip Exclusion 2 wbt2] | 55.7 nM | 165 nM |
| AAAUAACAUGAGGAUCACCCAUGUUAGGAUAUCUAAAUGGUGUAAACACCAGAAGAUGAGAGAAGGGACGUGGA [Enlalees] | 17.9 nM | 25.1 nM |
| AAAUAGCAAGGAUAUACAUGAGGAUCACCCAUGUGAAAAAGAUAUGGAAUAGAAUAGAGUAGAAGGUGCAAAUA [Ex 3 Tesla 8] | 40.4 nM | 54.1 nM |
| AAAUAGUUAGGAUAUACAUGAGGAUCACCCAUGUGCACUUAUGGAGAAUAGUGUAAUGGUAGAAGGGACUAAAA [EX2 Malc#23] | 82.1 nM | 94.6 nM |
| AAAUAGUUAGGAUAUACAUGAGGAUCACCCAUGUGGACUUAUGGAGAAUAAUUUAGUGGUAGAAGGGACUAAAA [EX2 Malc#27] | 46.4 nM | 44.6 nM |
| AAAUGCUGAGGAUAUACAUGAGGAUCACCCAUGUAAAAUAAAUAAUGAGUGUAAACGUGUAGAAGGCAGCAUAA [Exclusion 3.14c (FMN+ favored )] | 41.1 nM | 19.5 nM |
| AAAUUGUCAGGAUAUGUACGAACAACAAAACAAAUAACGGUACAGAAGGGACAUGAGGAUCACCCAUGUAUAAA [May 72] | 65.8 nM | 73.2 nM |
| AACAAGACAGGAUAUACAUGAGGAUCACCCAUGUGAGAAUUAAGUGGCGUACCACAAGGUAGAAGGGUCAUGGA [Ruby 3] | 34.2 nM | 57.6 nM |
| AACAGACAUGAGGAUCACCCAUGUAAGGAUAUCCCAAACGAUAAAACAAGAAUGACAAGGAGAAGGUGCAGCAA [JR_Exc001_Sub006] | 62.8 nM | 50.8 nM |
| AACAGGUGAGGAUAUCGAACAACAACAACAACAACAACAAACGAGAAGGCACAUGAGGAUCACCCAUGUAAGAA [Exclusion 4C] | 19.6 nM | 16.6 nM |
| AACAGUACAGGAUAUACAUGAGGAUCACCCAUGUAAAGGGAAAGUGGCGUACCACAAAGUAGAAGGGUACUGGA [Moding Maslow revisited (73) 5] | 40.1 nM | 175 nM |
